# Measurements as given in patent US20230072133A1 (WUXI BIOLOGICS IRELAND, published 2023).
# T1: Human TGF-β3 (human, UniProt P10600 301-412)
# T1 construct: also called TGF433 [sic]
# T1 sequence (looked up): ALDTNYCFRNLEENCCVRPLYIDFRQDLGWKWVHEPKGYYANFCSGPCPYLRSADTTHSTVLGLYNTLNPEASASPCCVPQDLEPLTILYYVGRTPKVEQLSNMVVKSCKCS
# T2: Human TGF-β2 (human, UniProt P61812 303-414)
# T2 sequence (looked up): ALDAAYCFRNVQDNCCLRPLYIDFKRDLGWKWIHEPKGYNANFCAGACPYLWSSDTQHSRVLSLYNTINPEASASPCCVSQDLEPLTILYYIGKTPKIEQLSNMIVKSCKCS
# Tests used:
# [1] = target: T3, Human PD-L1, full length, on transfected cells (W315-CHO-K1.hProl.C11) (human, UniProt Q9NZQ7 19-290); test: PD-L1 FACS on human PD-L1 expressing cells, WT1122 after 0 to 14 days in human serum at 37 °C [lower panel]
# T3 construct: whole, on cells; Also used here for the human PD-L1 on the artificial APC (CHO-K1 with human PD-L1 and OKT3 scFv) of the reporter gene assay; also called hPD-L1; cell surface human PD-L1
# T3 sequence (Q9NZQ7 19-290): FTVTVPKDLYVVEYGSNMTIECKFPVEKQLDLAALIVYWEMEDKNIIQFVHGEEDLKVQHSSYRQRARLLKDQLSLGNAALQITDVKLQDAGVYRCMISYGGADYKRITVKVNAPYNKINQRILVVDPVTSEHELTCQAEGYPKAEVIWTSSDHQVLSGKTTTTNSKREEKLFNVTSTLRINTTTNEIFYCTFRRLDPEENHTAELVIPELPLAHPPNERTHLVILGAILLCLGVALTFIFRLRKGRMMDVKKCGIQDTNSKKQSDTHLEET
# Procedure: (§1) Various concentrations of testing antibodies were incubated with hPD-L1 expressing W315-CHO-K1.hProl.C11 cells at 4° C. for 1 hour. After washing, the cells were incubated with PE-labeled goat anti-human IgG-Fc antibody (Jackson Immuno Research). Finally, the MFI of the cells was measured by a flow cytometer and analyzed by FlowJo.
# (§2) The samples were quickly thawed immediately prior to the stability test.
# [2] = target: T4, Cynomolgus monkey (cyno) PD-L1 ECD antigen His tagged (cynomolgus monkey, UniProt G7PSE7 19-238); test: SPR (Biacore 8K), antibody captured by anti-human IgG Fc, PD-L1 as analyte, 1:1 model
# T4 construct: also called Cyno PD-L1 (SPR analyte)
# T4 sequence (G7PSE7 entry or part of it limits assumed): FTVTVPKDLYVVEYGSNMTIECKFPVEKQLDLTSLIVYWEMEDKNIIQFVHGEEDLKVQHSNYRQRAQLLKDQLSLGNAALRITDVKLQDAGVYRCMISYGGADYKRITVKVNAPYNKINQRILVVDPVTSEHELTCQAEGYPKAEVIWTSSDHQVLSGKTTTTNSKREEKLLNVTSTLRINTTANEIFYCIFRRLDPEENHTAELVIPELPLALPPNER
# Procedure: (§3) Antibody was captured on an anti-human IgG Fc antibody immobilized CM5 sensor chip (GE). Human or cyno PD-L1 at different concentrations were injected over the sensor chip at a flow rate of 30 μL/min for an association phase of 180 s, followed by 3600 s dissociation. Mouse PD-L1 at different concentrations were injected over the sensor chip at a flow rate of 30 μL/min for an association phase of 120 s, followed by 1200 s dissociation. The chip was regenerated by 10 mM glycine (pH 1.5) after each binding cycle.
# (§4) The sensorgrams of blank surface and buffer channel were subtracted from the test sensorgrams. […] The experimental data was fitted by 1:1 model using Langmiur analysis. Molecular weight of 40 kDa was used to calculate the molar concentration of human, mouse and cyno PD-L1.
# [3] = target: T5, Human PD-L1 extracellular domain (ECD) antigen His tagged (human, UniProt Q9NZQ7 19-238); test: as above
# T5 construct: extracellular domain; The SPR and the PD-L1-coated ELISA say only 'human PD-L1'; also called human PD-L1 ECD protein; Human PD-L1 (SPR analyte); not shown: His tag
# T5 sequence (Q9NZQ7 19-238): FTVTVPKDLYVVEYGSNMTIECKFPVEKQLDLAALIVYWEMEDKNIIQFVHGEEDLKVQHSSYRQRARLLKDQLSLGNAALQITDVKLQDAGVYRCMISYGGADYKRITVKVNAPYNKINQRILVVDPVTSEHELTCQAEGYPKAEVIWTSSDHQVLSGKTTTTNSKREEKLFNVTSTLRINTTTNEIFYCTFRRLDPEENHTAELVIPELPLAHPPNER
# Procedure: as §3, §4
# [4] = target: T6, Mouse PD-L1 (soluble SPR analyte) (mouse, UniProt Q9EP73 19-239, limits assumed); test: SPR (Biacore 8K), antibody captured by anti-human IgG Fc, mouse PD-L1 as analyte, 0-300 s curves fitted
# T6 construct: 40 kDa used for molarity
# T6 sequence (Q9EP73 19-239 limits assumed): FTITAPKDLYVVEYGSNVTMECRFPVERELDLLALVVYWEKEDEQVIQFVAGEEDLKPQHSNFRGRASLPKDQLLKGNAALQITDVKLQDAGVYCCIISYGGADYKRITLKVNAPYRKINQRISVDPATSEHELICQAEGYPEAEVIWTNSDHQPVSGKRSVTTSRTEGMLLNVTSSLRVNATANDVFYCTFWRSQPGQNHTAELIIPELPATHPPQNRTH
# Procedure: as §3, §4
# [5] = target: T7, Cynomolgus monkey PD-L1, full length, on transfected cells (W315-293F.cynoPro1.2A2) (cynomolgus monkey, UniProt G7PSE7 19-290); test: FACS on cyno PD-L1 expressing 293F cells
# T7 construct: also called cyno PD-L1; cell surface cyno PD-L1
# T7 sequence (G7PSE7 entry or part of it limits assumed): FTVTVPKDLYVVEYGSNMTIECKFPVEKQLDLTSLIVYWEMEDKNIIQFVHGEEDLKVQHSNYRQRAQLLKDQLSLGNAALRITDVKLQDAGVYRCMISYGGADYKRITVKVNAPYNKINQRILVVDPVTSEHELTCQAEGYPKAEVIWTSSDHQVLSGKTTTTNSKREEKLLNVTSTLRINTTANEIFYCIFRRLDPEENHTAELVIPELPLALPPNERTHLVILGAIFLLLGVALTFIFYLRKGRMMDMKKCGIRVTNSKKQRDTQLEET
# Procedure: (§5) The binding of testing antibodies to cynomolgus monkey or mouse PD-L1 was determined by FACS. Various concentrations of testing antibody were incubated with cynomolgus PD-L1-expressing W315-293F.cynoPro1.2A2 cells or mouse PD-L1 expressing W315-293F.mPro1.C1 cells at 4° C. for 1 hour, and then the binding of antibodies to the surface of the cells was detected by PE-labeled goat anti-human IgG-Fc antibody (Jackson Immuno Research). MFI of the cells was measured by a flow cytometer and analyzed by FlowJo.
# [6] = target: T3, Human PD-L1, full length, on …; test: competition FACS: blocks mFc tagged human PD-1 binding to human PD-L1 expressing cells
# Procedure: MFI of the cells was measured by a flow cytometer and analyzed by FlowJo.
# Human TGF-β3 [7] = target: T1, Human TGF-β3; test: ELISA, plate coated with human TGF-β3, antibody titrated, HRP goat anti-human IgG
# Procedure: (§6) The binding of antibodies to human TGF-β1, TGF-β2 and TGF-β3 was determined by ELISA. Plates were coated with human TGF-β1, TGF-β2 or TGF-β3 overnight at 4° C., respectively. After blocking and washing, various concentrations of testing antibodies were added to the plates and incubated at room temperature for 1 hour. The plates were then washed and incubated with HRP-labeled goat anti-human IgG antibody (Bethyl) for 1 hour. After washing, TMB substrate was added and the color reaction was stopped by 2M HCl. The absorbance at 450 nm and 540 nm was read using a microplate reader (SpectraMax M5e).
# Human FcRn = Human FcRn (human, UniProt P55899 24-297; P61769 21-119); test: SPR (Biacore 8K), antibody immobilized on CM5, human FcRn as analyte, steady-state model, pH 6.0
# Chain of Human FcRn (P55899 24-297 limits assumed, chain 1 of 2): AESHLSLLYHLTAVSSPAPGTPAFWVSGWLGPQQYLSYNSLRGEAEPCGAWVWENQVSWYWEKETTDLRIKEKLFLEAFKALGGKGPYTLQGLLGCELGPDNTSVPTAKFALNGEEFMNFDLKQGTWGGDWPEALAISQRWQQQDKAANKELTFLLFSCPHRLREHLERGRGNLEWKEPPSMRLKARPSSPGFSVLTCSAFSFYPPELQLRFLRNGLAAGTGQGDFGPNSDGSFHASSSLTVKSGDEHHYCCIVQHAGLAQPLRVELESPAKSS
# Chain of Human FcRn (P61769 21-119 limits assumed, chain 2 of 2): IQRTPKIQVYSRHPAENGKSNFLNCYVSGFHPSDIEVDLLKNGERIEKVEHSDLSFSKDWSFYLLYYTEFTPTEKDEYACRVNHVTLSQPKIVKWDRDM
# Procedure: Each antibody was immobilized on CM5 sensor chip (GE). […] The chip was then regenerated by 10 mM glycine (pH 1.5) after each binding cycle. The sensorgrams of blank surface and buffer channel were subtracted from the test sensorgrams.
# Human TGF-β3 [8] = target: T1, Human TGF-β3; test: ELISA, plate coated with human TGF-β3
# Procedure: as §6
# Human TGF-β2 [9] = target: T2, Human TGF-β2; test: SPR (Biacore 8K), antibody immobilized on CM5, TGFβ as analyte, 1:1 model; SPR with WT1122 as ligand on the chip and soluble TGF-β2 as analyte: binds
# Procedure: (§7) Antibody binding affinity to TGFβ was detected by SPR assay using Biacore 8K. Each antibody was immobilized on CM5 sensor chip (GE). Human TGFβ1 and TGFβ3 at different concentrations were injected over the sensor chip at a flow rate of 50 uL/min for an association phase of 240 s, followed by 1200 s dissociation. Human TGFβ2 at different concentrations were injected over the sensor chip at a flow rate of 50 uL/min for an association phase of 240 s, followed by 300 s dissociation. The chip was regenerated by 10 mM glycine (pH 1.5) after each binding cycle.
# (§8) The sensorgrams of blank surface and buffer channel were subtracted from the test sensorgrams. The experimental data was fitted by 1:1 model using Langmiur analysis. Molecular weight of 22 kDa, 24 kDa and 22 kDa were used to calculate the molar concentration of analyte TGFβ1, TGFβ2 and TGFβ3, respectively. The results are shown in […]
# Human TGF-β1 [10] = target: T8, Human TGF-β1 (human, UniProt P01137 279-390); test: ELISA, plate coated with human TGF-β1
# T8 construct: 22 kDa was used for the molar concentration in SPR
# T8 sequence (P01137 279-390 limits assumed): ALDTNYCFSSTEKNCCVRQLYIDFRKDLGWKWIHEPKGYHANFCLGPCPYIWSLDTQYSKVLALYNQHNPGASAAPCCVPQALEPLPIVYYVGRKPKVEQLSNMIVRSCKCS
# Procedure: as §6
# Human TGF-β1 [11] = target: T8, Human TGF-β1; test: ELISA, plate coated with human TGF-β1, antibody titrated, HRP goat anti-human IgG
# Procedure: as §6
# Human TGF-β2 [12] = target: T2, Human TGF-β2; test: ELISA, antibody immobilized, soluble TGF-β2 titrated; ELISA with antibody immobilized and soluble TGF-β2 titrated: binds
# Procedure: The binding of antibody to human TGF-β2 was also determined by ELISA immobilized with testing antibodies. After blocking and washing, various concentrations of TGF-β2 were added to the plates and incubated at room temperature for 1 hour. The plates were then washed and incubated with biotinylated TGF-β2 detection antibody (R&D, DY240) for 1 hour, followed by streptavidin-HRP for 1 hour. After washing, TMB substrate was added and the color reaction was stopped by 2M HCl. The absorbance at 450 nm and 540 nm was read using a microplate reader (SpectraMax M5e).
# Human TGF-β1 [13] = target: T8, Human TGF-β1; test: dual binding ELISA coating with TGF-β1, WT1122 after 0 to 14 days in human serum at 37 °C, detected with biotinylated human PD-L1 ECD and streptavidin-HRP [upper panel]
# Procedure: After blocking and washing, various concentrations of testing antibodies were added to the plates and incubated at room temperature for 1 hour. […] After washing, TMB substrate was added and the color reaction was stopped by 2M HCl. The absorbance at 450 nm and 540 nm was read using a microplate reader (SpectraMax M5e).
# as §2
# [14] = target: T3, Human PD-L1, full length, on …; test: FACS on human PD-L1 expressing CHO-K1 cells
# Procedure: as §1
# Human TGF-β3 [15] = target: T1, Human TGF-β3; test: SPR (Biacore 8K), antibody immobilized on CM5, TGFβ as analyte, 1:1 model
# Procedure: as §7, §8
# Human TGF-β1 [16] = target: T8, Human TGF-β1; test: as above
# Procedure: as §7, §8
# [17] = target: T9, Mouse PD-L1, full length, on transfected cells (W315-293F.mPro1.C1) (mouse, UniProt Q9EP73 19-290); test: FACS on mouse PD-L1 expressing 293F cells
# T9 construct: whole, on cells; also called cell surface mouse PD-L1
# T9 sequence (Q9EP73 19-290): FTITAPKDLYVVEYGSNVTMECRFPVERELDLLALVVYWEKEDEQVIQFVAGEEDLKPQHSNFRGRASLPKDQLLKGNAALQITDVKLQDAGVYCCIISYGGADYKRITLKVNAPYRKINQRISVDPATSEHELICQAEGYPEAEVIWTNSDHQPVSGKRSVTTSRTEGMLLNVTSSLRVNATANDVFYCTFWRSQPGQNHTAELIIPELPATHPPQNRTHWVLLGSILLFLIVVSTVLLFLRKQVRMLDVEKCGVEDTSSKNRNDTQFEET
# Procedure: as §5
# [18] = target: T3, Human PD-L1, full length, on …; test: cell-based or functional assay
# Human TGF-β1 [19] = target: T8, Human TGF-β1; test: cell-based or functional assay
binder,measurement,setting,value
WT1122-U14T1.G15-1.uIgG1 (antibody) heavy: not shown light: SYELTQPPSVSVSPGQTASITCSGSELPKRYAYWYQQKPGQSIVRVIYKDSERPSGISERFSGSSSGNTATLTISGTQAMDEADYYCSSTYGDRKLPIFGGGTKLTVLGQPKAAPSVTLFPPSSEELQANKATLVCLISDFYPGAVTVAWKADSSPVKAGVETTTPSKQSNNKYAASSYLSLTPEQWKSHKSYSCQVTHEGSTVEKTVAPTECS,EC50 (read off the curve),[1],~0.2 nM
same,Kd,[2],0.446 nM
same,koff,[2],0.00135 s⁻¹
same,kon,[2],3.03e+06 M⁻¹ s⁻¹
same,Kd,[3],0.695 nM
same,koff,[3],0.00168 s⁻¹
same,kon,[3],2.41e+06 M⁻¹ s⁻¹
same,Kd,[4],1080 nM
same,EC50,[5],1.08 nM
same,IC50,[6],0.04 nM
same,EC50 (read off the curve),Human TGF-β3 [7],~0.8 nM
same,Kd,Human FcRn,2570 nM
same,EC50,Human TGF-β3 [8],0.8 nM
same,Kd,Human TGF-β2 [9],0.369 nM
same,koff,Human TGF-β2 [9],0.0149 s⁻¹
same,kon,Human TGF-β2 [9],4.02e+07 M⁻¹ s⁻¹
same,EC50,Human TGF-β1 [10],0.5 nM
same,EC50 (read off the curve),Human TGF-β1 [11],~0.5 nM
same,EC50,Human TGF-β2 [12],0.07 nM
same,EC50 (read off the curve),Human TGF-β1 [13],~0.4 nM
same,EC50,[14],0.7 nM
same,Kd,Human TGF-β3 [15],0.00162 nM
same,koff,Human TGF-β3 [15],9.35e-05 s⁻¹
same,kon,Human TGF-β3 [15],5.78e+07 M⁻¹ s⁻¹
same,Kd,Human TGF-β1 [16],0.00165 nM
same,koff,Human TGF-β1 [16],0.000206 s⁻¹
same,kon,Human TGF-β1 [16],1.25e+08 M⁻¹ s⁻¹
same,EC50,[17],1.2 nM
same,"hPD-1/PD-L1 signaling blockade IC50, NFAT luciferase reporter gene assay (RGA)",[18],0.31 nM
same,"TGF-β1 blockade IC50, SBE luciferase reporter gene assay (RGA)",Human TGF-β1 [19],1.2 nM
